Measurements published in publication PMC6737378, “Molecular Basis for ATP-Hydrolysis-Driven DNA Translocation by the CMG Helicase of the Eukaryotic Replisome” (Cell Reports, 2019).

B1: Saccharomyces cerevisiae Csm3-Tof1 complex (complex, S. cerevisiae)
chain 1: MDQDFDSLLLGFNDSDSVQKDPTVPNGLDGSVVDPTIADPTAITARKRRPQVKLTAEKLLSDKGLPYVLKNAHKRIRISSKKNSYDNLSNIIQFYQLWAHELFPKAKFKDFMKICQTVGKTDPVLREYRVSLFRDEMGMSFDVGTRETGQDLERQSPMVEEHVTSAEERPIVADSFAQDKRNVNNVDYDNDEDDDIYHLSYRNRRGRVLDERGNNETVLNNVVPPKEDLDALLKTFRVQGPVGLEENEKKLLLGWLDAHRKMEKGSMTEEDVQLIQSLEEWEMNDIEGQHTHYDLLPGGDEFGVDQDELDAMKEMGF
chain 2: MSADLQQGTTNAADFSLTVLRARIALLATAIGGPDYTSQIDPPPYKLGDDCLACLKDLKRWFKLVDDQQKRWDVAMAVAEYRILTDDLLPILIDWENKCSLAAKLAKNNPDHEEFRNKAYYDKIALNCLQLLVLMTWPLIVTEQSSSNQITLYGELKKHQLVYKKTILSMESGKVLRAAIRLALDVIKIDRLSRTPRDNMVLKLVLNFFRNVIAIEPGEFTINTKKSMPKKGITSIDTLPPNVSMDDISLNTVISSFHKNKVFGFLLTLTSSLSKEFDQDFINIPLLEIMFYFTKDVNQELLFPRQFETGTHSKVVNKNESSSANNIVTSAGFELSKLLQKEHQMRKNVIKHTSARHSRFGGLLSIQTPDKTRLTVSGSQALVDEKIALQKLDDSKKWNKRIIKKHQSVAAEGLPNSLLNSQTGKAIFFTESNGKHFKEFINNFIDSGFNILLHSVTNYFTTEQDRMVTLEQVEYLLFFAWFVKYQLLRSKIDNSADIKQVSEALKEVTFILVSSLLRSAYDLKNWTVTHAGMIAFNELLNLVSRTKAAQEEDSTDIEFIVSRLFSDERIQLLSNLPKIGSKYSLQFMKSCIELTHSVLKVLEQYSDDKTLVIEGKSRRQKKFNISEGDITKLIEEENVDRDEALDILTSSLRSIEVNFQKVQANYMTEPVIETYINFLERFRELEDDSIKKVFSFFHRVFVQAKEQALLFRFDLIILLREMLSPDGLDRMSRSRKYVSQFSDYFLARLKKRLKKSPAWFVGLLFPPLHNSEVGFYQRYGEYNVLNNESMYAAPASQFKPIPDEEALPPSILLDMKYGVLVSTLLDDGKTELLDQLLKHITHTLDIFKSWLTVNVNAGKETVNPPNEYFTLTGVLNNDPIFKDKDYRALLLLIGYSIPRKINEPCFLPGTVEVSDLTVSCELVKKYLSTPFETPNGLPSSSYLLRVRSEKDSFSHNEQDGWEGDDDYDYNDPYIVPDDQILSKSDAAYFKDLDNNASDKLKGTKFSKGIARSKKKDKRKRRKGEAKTNLPMFGDQDDERPQTVRERHGVFSKEFISDSEDDEDLMNPIFFENETYMRWLLDKNNGQLTEDRYIQFAKFAAERMNNGGVVTGDYTSLFGGSIPSIESIRATESSSFAPDKSLISLASHVASEMSIFDVNNNNNNQLSDDDVNSESRNSLGSSQPSNSQNMFQSEVYSRKESTKRSLEASAADESDEDEEAIRLFGKKSRVVLSQGDSDD
notes: Csm3, S. cerevisiae, from strain yAE48 (Yeeles et al., 2017); Tof1, S. cerevisiae, from strain yAE48 (Yeeles et al., 2017); Construct in Yeeles et al., 2017; also called ScCsm3/Tof1

How the values were obtained:
[1] = test system: T1, Drosophila CMG (Cdc45-MCM-GINS helicase; DmCMG); assay: cryo-EM structure; assay type: binding, Drosophila melanogaster; conditions: DNA fork bound, 5 mM ATP elution buffer, 2 mM Mg(OAc)2, pH 7.6; bipartite MCM inter-protomer ATPase sites; states 1A, 1B, 2A, 2B at 3.70-4.46 Å; ADP at loosened interfaces, arising during ATP turnover
T1 construct: gene Mcm2; with Cell division control protein 45; DNA replication complex GINS protein PSF1; DNA replication complex GINS protein PSF2; DNA replication complex GINS protein PSF3; DNA replication complex GINS protein SLD5
Excerpt: cryo-EM structure on Drosophila CMG (Cdc45-MCM-GINS helicase; DmCMG) | ATP at inter-protomer interfaces is shown in red.

[2] = biological target: T2, Saccharomyces cerevisiae CMG helicase (Cdc45-MCM-GINS) (S. cerevisiae, UniProt P29469 1-868; P24279 1-971; P30665 1-933; P29496 1-775; P53091 1-1017; P38132 …); assay: DNA fork-affinity purification with silver-stained gel and negative-stain EM 2D averaging; desthiobiotin DNA fork on streptavidin magnetic beads; 250 nM CMG mixed with 350 nM Mrc1 + Csm3-Tof1, 2 mM ATPγS, then 80 nM Polε; Protein Binding Buffer, 30°C; eluted with biotin; dropouts without Mrc1 or Csm3-Tof1; parallel experiment without Polε on an M.HpaII-labeled fork; conditions: both partners purified
T2 construct: Mcm2, S. cerevisiae, subunit of the CMG from strain yJCZ3 (Zhou et al., 2017); Mcm3, S. cerevisiae, subunit of the CMG from strain yJCZ3; Mcm4, S. cerevisiae, subunit of the CMG from strain yJCZ3; Mcm5, S. cerevisiae, subunit of the CMG from strain yJCZ3; Mcm6, S. cerevisiae, subunit of the CMG from strain yJCZ3; Mcm7, S. cerevisiae, subunit of the CMG from strain yJCZ3; Cdc45, S. cerevisiae, …

[3] = biological target: B1; assay: DNA-affinity purification; desthiobiotin fork or blunt duplex DNA on streptavidin magnetic beads; 350 nM Mrc1, 350 nM Csm3-Tof1 or 350 nM MCT pre-incubated on ice; Protein Binding Buffer, 30°C; eluted with biotin; conditions: both partners purified
[4] = biological target: T2, Saccharomyces cerevisiae CMG helicase …; assay: pull-down + other: negative-stain EM; 250 nM CMG held on Calmodulin Affinity Resin, 500 nM Ctf4 added, 1 mM ATPγS, 30°C; eluted with EDTA/EGTA, cross-linked with 0.01% glutaraldehyde and imaged; conditions: both partners purified

**Q.** Which cryo-EM structure [1] does the source give for `Nc1ncnc2c1ncn2[C@@H]1O[C@H](COP(=O)(O)OP(=O)(O)O)[C@@H](O)[C@H]1O` [ADP] here?
**A.** The C-terminal subunit in the spiral is ADP bound as are the non-engaged seam subunits.

**Q.** Does B1 bind [2]?
**A.** binds

B2: Saccharomyces cerevisiae Mrc1 (natural protein, S. cerevisiae, UniProt P25588 1-1096, looked up)
chain: MDDALHALSSLTAKKRTTTYKKVAVPILDENDNTNGNGPNDIDNPPELTGNGFLFANATLNRVKNRLEGKKAPEQNHNNGKDRSENSLPTQLISNLYDGGEELEKSEVKDNSYSEKNVSSSFTQTQRIPVSIQQDKVFNVPIHSVNDGKPTQLIKEDGLVNETSQALKTPLTTGRPGATQRIDSSGATSQTQPIKSIEPQSQIITTSSNHSNALSPKIPIIPTELIGTSPLFQSIQNRGPDTQMDVPPQTAHDEDKTQAIGIPQATHQEQKTQIDTVAQTLQDEVPHTLKIREIQSELASEDSKREKARNVEYKKPQKPIPTKKFFSKESFLADFDDSSSNEDDDIKLENAHPKPVQNDDELHENKSVELNLTDETRINEKRVPLLSSYANNLKREIDSSKCITLDLDSDSDEYGDDDMDSIKLSKDESVLPISQLSKATILNLKARLSKQNQKLSQRPNKSKDPKVDHNVLLNTLRKASRKQILDHQKEVIETKGLKLEDMAKEKEIVENLLEQEILRNKRIRQKEKRREKLEENDFQLNAHDSGSDSGSESSGFALSGNEIADYESSGSENDNRRESDSEKEDDEIILKQKKSHHVKHIINESDSDTEVEAKPKEKADESLPKRIAINLGHYGDNIGEDTDKFQETNVLDTQNIEEVMAERNTIENEVKDDVYVNEEADEAIRRQLIDKEKLQLKQKEKEHEAKIKELKKRGVTNFFEMEAEESEDEWHGIGGADGEGSDDYDSDLEKMIDDYSKNNFNPHEIREMLAAENKEMDIKMINKILYDIKNGGFRNKRAKNSLELELSDDDEDDVLQQYRLKRRELMRKRRLEIGDDAKLVKNPKSSAFFESMVEDIIEYKNPFGAEEEYNLDITSTATDLDTQDNSINVGDNTGNNEQKPVDQKNKKVIISEDFVQKSLSFLKSNNYEDFETDKELSRIQHGNDEAIEDLYTLKQNSSIKSFTNSQTDSTTSKTVNTIIDLEKRPEDEDEVENGDTSLVGVFKHPSIIKSFASRTDINDKFKEGNKTVKILKSYKTVGSSKASITYMGKTRKLIAPKRKTEGSHRYHHDHHNKKMKMKTKTKSNKLFESGQDSFDN
notes: Mrc1, S. cerevisiae, from strain yJY32 (Yeeles et al., 2017); Construct in Yeeles et al., 2017; also called ScMrc1; FLAG-Mrc1; source: S. cerevisiae strain yJY32, purified (anti-FLAG M2 agarose, MonoQ)
**Q.** Does B2 bind [2]?
**A.** binds

**Q.** Does B2 bind [3]?
**A.** binds

B3: Saccharomyces cerevisiae Ctf4 trimer (natural protein, S. cerevisiae, UniProt Q01454 1-927, looked up)
chain: MVSVIDKLVFDFGGKTLVSLAPDNNTLCVANKNGLTKILKTNNPEEEPETLDSSKLVSSIKCYSNSHFLMTTMQGDALRYNIDSSQEELLARFALPLRDCCVIHSGKMAVFGGDDLELILLELDDETHKKHAIKIDEQVSQISYNSQMNILAVSMINGKVQIFSLTSTIPNKVHELNDYIVANSYDDTHRDKILSNMMDDIDKDNDNDLSETADPDENNVADPEFCAANRICTRVAWHPKGLHFALPCADDTVKIFSIKGYSLQKTLSTNLSSTKAHFIDLQFDPLRGTYIAAVDLNNKLTVWNWETSEIHYTREFKRKITNIAWKIQADSKTLDLVLGTWSGSIAIVQNLAESVVSNIPDQSVAESSTKHGLFVDSESDLENLEGNDDINKSDKLFSDITQEANAEDVFTQTHDGPSGLSEKRKYNFEDEEDFIDDDDGAGYISGKKPHNEHSYSRVHKTHSFPISLANTGKFRYMPFSPAGTPFGFTDRRYLTMNEVGYVSTVKNSEQYSITVSFFDVGRFREYHFEDLFGYDLCFLNEKGTLFGQSKTGQIQYRPHDSIHSNWTKIIPLQAGERITSVAATPVRVIVGTSLGYFRSFNQFGVPFAVEKTSPIVALTAQNYRVFSVHYSQFHGLSYSLSELGTSSKRYYKRECPLPMSLPNINSDMKKDANLDYYNFNPMGIKSLFFSSYGDPCIFGSDNTLLLLSKWRSPEESKWLPILDSNMEIWKMSGGKETTDIHVWPLALAYDTLNCILVKGKHIWPEFPLPLPSEMEIRMPVFVKSKLLEENKAILNKKNEIGADTEAEEGEEDKEIQIPVSMAAEEEYLRSKVLSELLTDTLENDGEMYGNENEVLAALNGAYDKALLRLFASACSDQNVEKALSLAHELKQDRALTAAVKISERAELPSLVKKINNIREARYEQQLK
notes: Ctf4, S. cerevisiae, expression plasmids of Gambus et al., 2009; Called a trimer in the methods; Construct in Gambus et al., 2009; also called ScCtf4; source: E. coli BL21 (DE3), purified (Ni-NTA, MonoQ, Superdex 200)
**Q.** Does B3 bind [4]?
**A.** binds
